In PMC6275602 (Cellular & Molecular Biology Letters, 2012):
Read-outs that look alike come from different tables or passages of the source.

Columns and labels:
[1] = target: T1, human low-density lipoprotein (LDL; d = 1.019-1.063 g/ml) (human); assay: SPR
[2] = target: T1, human low-density lipoprotein (LDL; d = …); assay: SPR; remark: listed apart in the source

B1: sPLA2-X-HisTag, purified recombinant human (enzyme, UniProt O15496 43-165, looked up)
chain: GILELAGTVGCVGPRTPIAYMKYGCFCGLGGHGQPRDAIDWCCHGHDCCYTRAEEAGCSPKTERYSWQCVNQSVLCGPAENKCQELLCKCDQEIANCLAQTEYNLKYLFYPQFLCEPDSPKCD
B1 showed a Kd [1] of 3.1 nM, a koff [1] of 0.00024 s⁻¹ and a kon [1] of 65400 M⁻¹ s⁻¹. It also gave a Kd [2] of 110 nM, a koff [2] of 0.00886 s⁻¹ and a kon [2] of 82500 M⁻¹ s⁻¹.
